Source: IntAct's records for PubMed 18001824

B1: E3 ubiquitin-protein ligase RNF8 (Homo sapiens), O76064 (parent)
chain: MGEPGFFVTGDRAGGRSWCLRRVGMSAGWLLLEDGCEVTVGRGFGVTYQLVSKICPLMISRNHCVLKQNPEGQWTIMDNKSLNGVWLNRARLEPLRVYSIHQGDYIQLGVPLENKENAEYEYEVTEEDWETIYPCLSPKNDQMIEKNKELRTKRKFSLDELAGPGAEGPSNLKSKINKVSCESGQPVKSQGKGEVASTPSDNLDPKLTALEPSKTTGAPIYPGFPKVTEVHHEQKASNSSASQRSLQMFKVTMSRILRLKIQMQEKHEAVMNVKKQTQKGNSKKVVQMEQELQDLQSQLCAEQAQQQARVEQLEKTFQEEEQHLQGLEIAQGEKDLKQQLAQALQEHWALMEELNRSKKDFEAIIQAKNKELEQTKEEKEKMQAQKEEVLSHMNDVLENELQCIICSEYFIEAVTLNCAHSFCSYCINEWMKRKIECPICRKDIKSKTYSLVLDNCINKMVNNLSSEVKERRIVLIRERKAKRLF

Variants of: B1
Settings: with mdc1_human MDC1, Q14676
Sequence of mdc1_human MDC1, Q14676 (Q14676 whole entry): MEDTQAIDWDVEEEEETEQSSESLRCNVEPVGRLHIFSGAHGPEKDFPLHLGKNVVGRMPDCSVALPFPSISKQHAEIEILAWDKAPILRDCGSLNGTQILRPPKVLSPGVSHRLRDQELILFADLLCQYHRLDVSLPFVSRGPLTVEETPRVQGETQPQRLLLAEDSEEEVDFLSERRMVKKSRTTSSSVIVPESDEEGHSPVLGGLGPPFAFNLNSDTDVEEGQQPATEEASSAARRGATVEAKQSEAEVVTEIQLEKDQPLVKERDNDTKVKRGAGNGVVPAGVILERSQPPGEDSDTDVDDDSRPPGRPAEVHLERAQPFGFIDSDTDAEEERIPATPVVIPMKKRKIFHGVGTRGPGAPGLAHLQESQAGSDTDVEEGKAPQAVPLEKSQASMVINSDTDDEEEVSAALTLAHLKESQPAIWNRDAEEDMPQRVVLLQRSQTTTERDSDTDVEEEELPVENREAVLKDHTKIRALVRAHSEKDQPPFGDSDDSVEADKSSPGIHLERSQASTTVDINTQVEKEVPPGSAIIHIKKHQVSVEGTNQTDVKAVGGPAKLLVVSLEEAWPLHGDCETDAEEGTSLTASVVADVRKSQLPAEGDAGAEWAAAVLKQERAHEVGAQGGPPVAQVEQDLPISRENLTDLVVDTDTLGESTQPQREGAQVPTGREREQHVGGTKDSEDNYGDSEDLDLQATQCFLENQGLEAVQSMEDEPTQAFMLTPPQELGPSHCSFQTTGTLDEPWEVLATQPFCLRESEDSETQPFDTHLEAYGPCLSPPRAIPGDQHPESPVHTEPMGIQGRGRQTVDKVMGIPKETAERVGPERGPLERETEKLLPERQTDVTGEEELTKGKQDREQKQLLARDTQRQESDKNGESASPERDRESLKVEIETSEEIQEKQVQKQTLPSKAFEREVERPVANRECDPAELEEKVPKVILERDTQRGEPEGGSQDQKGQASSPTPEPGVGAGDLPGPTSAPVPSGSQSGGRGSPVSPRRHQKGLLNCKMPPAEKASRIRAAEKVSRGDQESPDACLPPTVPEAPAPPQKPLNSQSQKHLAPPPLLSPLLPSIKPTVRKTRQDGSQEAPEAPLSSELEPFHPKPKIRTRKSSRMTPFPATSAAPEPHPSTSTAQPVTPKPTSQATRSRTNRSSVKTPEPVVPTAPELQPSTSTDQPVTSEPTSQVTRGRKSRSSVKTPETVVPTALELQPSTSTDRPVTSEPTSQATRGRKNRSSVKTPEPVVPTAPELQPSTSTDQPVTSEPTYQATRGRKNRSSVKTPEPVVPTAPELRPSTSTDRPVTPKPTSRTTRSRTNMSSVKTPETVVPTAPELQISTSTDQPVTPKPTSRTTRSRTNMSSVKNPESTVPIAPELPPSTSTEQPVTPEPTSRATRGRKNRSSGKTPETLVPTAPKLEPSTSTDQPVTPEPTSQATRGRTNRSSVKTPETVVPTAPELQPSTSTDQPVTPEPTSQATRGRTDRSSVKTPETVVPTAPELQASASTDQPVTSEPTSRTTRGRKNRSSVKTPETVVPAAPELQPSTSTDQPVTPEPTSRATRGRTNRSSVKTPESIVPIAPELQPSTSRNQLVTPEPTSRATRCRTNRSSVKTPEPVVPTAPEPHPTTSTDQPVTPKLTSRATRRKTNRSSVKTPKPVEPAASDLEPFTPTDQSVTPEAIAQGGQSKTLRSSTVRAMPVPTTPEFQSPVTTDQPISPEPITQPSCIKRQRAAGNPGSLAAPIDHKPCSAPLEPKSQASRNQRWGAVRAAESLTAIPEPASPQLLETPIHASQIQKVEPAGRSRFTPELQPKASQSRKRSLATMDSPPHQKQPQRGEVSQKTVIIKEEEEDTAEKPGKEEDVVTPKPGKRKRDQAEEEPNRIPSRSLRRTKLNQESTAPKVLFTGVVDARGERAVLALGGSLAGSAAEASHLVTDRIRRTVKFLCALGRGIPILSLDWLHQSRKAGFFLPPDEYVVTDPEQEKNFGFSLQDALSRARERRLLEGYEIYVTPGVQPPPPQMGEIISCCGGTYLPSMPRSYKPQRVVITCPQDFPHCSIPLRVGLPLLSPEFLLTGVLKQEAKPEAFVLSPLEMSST

Variant | effect of a mutation on the interaction
R42A | disrupting interaction
